The data set can be described thus: label from the status in PepcDB records.

On to “MGLGSSNRQTDDWNAKLYDERHRFVSAYGEDLIQWLAPKEGECVLDLGCGTGDLTEQIHQLGSRVIGVDVSESMIEQAKGKFPHLDFQVAEATDLSFSEKFDAIFSNAVLHWIKDAEEALTVIYRSLKPGGRFVAEFGGKGNVETIVNTLADTMSQADSRWSKEELPWFFPSIGQYTSLMEQVGFRVTHALHFNRPTLLEDGDGIRHWLAMFAESVLEGKSETERAEIVRFVEAEVKDALFDGTNWWADYKRIRVVGMKQL”, for which the protein production result is “failed”.

Consider “MGLKGFAEGGIASIVAGCSTHPLDLIKVRMQLQGESAPIQTNLRPALAFQTSTTVNAPPLRVGVIGVGSRLIREEGMRALFSGVSATVLRQTLYSTTRMGLYDIIKGEWTDPETKTMPLMKKIGAGAIAGAIGAAVGNPADVAMVRMQADGRLPLTDRRNYKSVLDAITQMIRGEGVTSLWRGSSLTINRAMLVTSSQLASYDSVKETILEKGLLKDGLGTHVSASFAAGFVASVASNPVDVIKTRVMNMKVVAGVAPPYKGAVDCALKTVKAEGIMSLYKGFIPTVSRQAPFTVVLFVTLEQVKKLFKDYDF”, for which the protein production result was “failed”.

Regarding “MGLLVVKAQRQLRKIDNSKVFQGVVIAVILLSALLIGAKTHNLSSNVVAILLLMDVAVTVFFAIEISIRYLACPQKKNFFKSGWNIFDTVIVIGSLVPSGGSGVLLARLLRVFRVLRLVSMVPELRLLINALLKAIPRMGYIALLMFVIFYIYAAIGSMYFHSINEVLWGDVSISMLTLFRVATFEDWTDVMYETMAVHPLSWIYYLTFIFLTAFIFLNMMVGTVLEVMSQEHEQFRAEQHGESGDGGEPASRAQIDKLESEIAEIKALLLAKT”, the protein production result was “failed”.

As for “MGLVIYDTLARRKVPFEPAVPGHVGIYVCGPTVYADPHLGHARGPVVYDVLRRYLLHKGYKVRFVSNITDVGHLTDDADEGEDKIVRRAKLERLEPMEVAEKYTWSYFDAMQALNVLRPSIAPRASGHIPEMLELTERLLARGVAYERKGSVYFRVRSFPEYGKLSGKRLEELRAGARVEVREEKEDPLDFALWKAAEPGHIMRWKSPWGEGYPGWHIECTAMSLKYLGEGFDLHAGGIDLQFPHHECEIAQAEAAGFRFARHWMHHNHVLLEGEKMAKSTGNLVLLHDLLEAHEPMALRFYLLQTHYRSPMDFTWEGLESAKRGYGRLLHAYREVRGRKKTAPPGTTPELERALDALEKAFMEAIEDDLSTPEALAALFAFLPELHKLLPEAKAESLARAEAVFHTLGEGILGLFPERVLEERVSGPLLEGLIALLLELREEARRAKDYEKSDLIRERLRALGVIVEDTKEGPRWRLER”, the protein production entry is given as “not failed”.

Consider “MGLWAAVHAERRGIATIIADAGRLGGGASGGLLGALMPHMPDRWSEKKQFQFDALVSLEAEIAALEAATGLSAGYNRSGRLIPLPKPHLNRIARGHSEDAERHWQAGERRFHWHVVDRPDADGWVDASAGASGFVHDTLAARVAPRSLMSALIASLRQAKFVRILEYAAVAGLDPDRGTADIGGETIAFSRCILAAGHQSFPLLQELTLGPKKPLGQPVKGQATLLKAAIDPALPTIFLDGLYIVAHEGGHVAIGSTSENRFNDPFSTDAQLDALIETARAIVPILRDAPVVERWAGLRPKAIDRDPMIGCHPDHPRLIALTGGFKVSFGLAHRLAEAAVCIADDIDCEYLLPESFAISSHIAAASR”, for which the protein production entry is reported as “failed”.

On to “MGMAASFARASSVIMPAPPRRYFSRQRFHNFRRLAIIGSKATRSGDTAAMTDGKHLDALTAAYAAKRPEEVAALYDRWSRTYDADMSAAGYRHPTICLALLTRHLPRGAAPLLDAGAGTGLIGEWLDISGYPEVEALDISQGMLDQAARKGVYSALHCLALGGALPFADDAYAGIVSAGVFTSGHVGVEGLNELIRICRPGGVIVLTVKNTLWEQGFAARIAELEAQGVVTRAEETRPYVSMPGEADTVPSRGLALRVN”, for which the protein production entry is given as “failed”.

On to “MGMGSNGELKYEISQNAYIKLVLHSLRHKTAAVNGVLVGRISPKDDGVVEISDSVPLFHSNLALLPPLEISLIMIEEHYVAQGLSIVGYFHANERFDDVELCGVAKNIGDHISRYFPQAPILLLNNKKLEALSKGKERSPVMQLCVKDASKNWRVVGADGGSKLLLKEPSANVVLSDYISSEKWKDVTDVDDHLDDVTKDWLNPGLFN”, for which the protein production result is “failed”.

As to “MGMHGAAHIVWDWNGTLFHDNAAIIGATNAAFAELGLEPITLERYRALYCVPVPKFYERLIGRLPTDAEWEIMDEIFHRYYAEHRVGCGLTEGAAELLVEWQSAGHSQSILSMYVHDELVPLVRGFGIEPHFIRVDGRTGPSGGSKAEHMVRHIGALAGVAGVDPARTVVIGDAADDAVAALHVGAQAVLYTGGSHSRASLEGVGVPVVDTLAEAVEEAGRLAA”, the protein production entry is listed as “failed”.
